Experimental data reported in a protein production outcome set (Wang et al. 2014).

Assay: label from the status in PepcDB records

| Sequence | protein production |
| --- | --- |
| MVVSLCSPGKCRKGTIVSRASLRANEGRRIERSTIAPSDLPPFRSRVSQPELPVERADHDADSVADGGWQATLCALEALAGGVDEAAGTGDGRRLLWALTLDADGVVGTIEPLEQTHGARGWSKPRPVPLARVAEDDTLPQWDVRVARAIRRDASRNRRHVLDRAAAVVALVGHPAVVLSHAPTVPMEVVESAPSLEAVREGDRYVLRIVPPLREALAMEDFLPAAARQEAESLRQITVLQDGPRRLRVVRFTPAQQGAAKLIAGGLSVPADAQARLDSTLRALAGHFQIHADSSGEARERDPESRLRAEVAPVGRGISLRLVVTPLGVLGPRLAPGHGRAQLMATIGGETHVTYRDLDAEHAHVAEVFEALPFLVQQAPAGGEHTWTLDDPEDALTAIEVLPGLAGVIDLEWPRGRELRVLPADIAQLAVSVETGSEWFKLVGELRVAEGLVISLEKLVAWAHGHAGRFMPMAHGVYVALTRQLRDRLRDLAGVGDGVRDGIRVPLVAAPWLDDVLAGAGIDPDAHFRTRVKQLRAARGHDAPVPPTLVAELRPYQLEGFRWMMSLAEAGFGACLADDMGLGKTLQSLAVLLARAAGGPALVVAPTSVCGNWATEARRFAPALRVHVYADGDREAIVGQAAAHDLVIVSYNLLQQARKAFCDRHWHTVVADEAQSFKNPSSRRAQAMFALPADCRIALSGTPVENRLAELWAVMRFCVPGLLGSLARFNEHFANPIERSGARDPRQRLRRMIAPFVLRRTKAQVLDELPPRTELVIRVTPEPTEAAHYEALRRQALSEAERALLRPRKDKKAPAAMTEPEARIHVLAQLMRMRRAACDPRLVTPDVGQPGAKVRAFAELAATLAANGHKTLVFSQFVDFLQMLRQALVDAGLAWQYLDGATPAGERTRRVAAFQAGEGDVFLISLKAGGFGLNLTAADYIVIADPWWNPAAEDQAMGRAHRIGQQRPVTVYRLIAAGTIEERIVDLHQGKRALADGVLDAMDGEAIGRDVPLPDVDELVGLLRR | failed |
| MRFFYFSGEIMEKILVIRNDKLGDFMQAWPAFAMLKASNPKLKLTALVPSYTASLAEICPFIDHVIIDSKKNDKTDFKRLVQEIKAQQFDGMISFFSNTHNGKLAWKSGIKYRLAPATKWVQILYNHRLTQRRSRSEKSEAEYNQDLVRTFLQKHNMPVVEPKPPYLIFEKSAVENQRVFLQENLGLSANKKWIFVHSGSGGSATNLSLAQYADLIKGLLAEFDCNVVLTAGPGESEKAYELANLVNDLRVAIYDKNKGLVDFAHSLACADLFIAGSTGPLHLSSAFNIPTIGFYPNSRSSQPRRWKPINDVDKHIAFCPPAGKESQMNLELISIDNALAEISLFIRNMWQTSNNI | failed |
| MARPQPCGPPHARCGSPSLPERPLQVKVVGLFSCPNFQIAKSAAENLKNNHPSKFEDPILVPLQEFAWHQYLQEKKRELKNETWEYSSSVISFVNGQFLGDALDLQKWAHEVWDIVDIKPSALYDALTEDFSAKFLRDTKHDFVFLDICIDSSPIGRLIFELYCDVCPKTCKNFQVLCTGKAGFSQRGIRLHYKNSIFHRIVQNGWIQGGDIVYGKGDNGESIYGPTFEDENFSVPHNKRGVLGMANKGRHSNGSQFYITLQATPYLDRKFVAFGQLIEGTEVLKQLELVPTQNERPIHMCRITDSGDPYA | failed |
| MKRKISMNKYVVSTILVMISTFFSRIMGFVKIKIFSYYFGANLDADIFNYVFNIPNNLRKILSEGAMTSAFLPEFTHEKNKSHEKAVSFFRTVITFNIISIGLIVLVMIIFAKPIMYFISYYRGENLIFASSVFGYLVLYILLISLSSIFVSVLNSYKIFFIPSFSPIMLSFGIILSIFLFYGRFGIYSAVIGVIFGGFLQFLIPFANCLMIGFAWKPTFYFREKVFLNFLTRWLRMIFGFSISIITQQISFALASTLEIGSVSILSNAVVYYQLPVGIFYISIATVIFPKMAEHAVLGNNIKLNALLVDGIKILLLIFIPVSFLMFIWSDYILNLFLMGGKFSIYDTQKTASVLKCFLLGLLFYSMFGFFQKYYFSIRDAKTPFYLSVLFSILDIAISVFGINYYGLNALALAQSISFMICVIVFYFIILKRGVKIDLIEILFVLLKSIITLFPLYAIYFFFEKFQWDVGFSFKNLYFLMAAGIVSIFVLFICYSVLGINKLFRYIRRDAL | failed |
| MAGQTEQVLNGVLEDIEHGRLGPGDLLEEAALTERHGVSRTPVREALIQLETQGLIRRLPRKGAVVFKPTLEEFLAILEVHARLEGQAAGLAARRMNATQAAELEAVVAACEAHARDKGDGDPFGYYRLNLRFHETVALGAGNPYLVEMIKTHARKLLAYYRARYSYPGSIPASAREHRQIATLIFDRRREEAEAAMIRHVQFDQVTVMDLLAALG | failed |
| MVFGPGLCIAHRGTIVVNKGARVGENCRIHACTNIGSGRDNIFLAPKIGNGVYIGPGAKIFGSVEIADNIAIGANSVVNRSFYERGISIAGVPAKKISNKGSDGMVIAATKTVSVPVSQETILEHHHHHH | failed |
| MSIYMIGLIRHSETKVFNKALIQGSLIAYIVFMLFAWGGEAIFSKYLNVRFEAFQIFGGLIFLVIGYRYVFQGADTIGEMRGAPEHLAGTIAMPFMIGPGTISAAVVTGIEMSIGAAALVIGFTMFLTCSILILMKFSHDHLRYKHAKYIDRYFDIVGRLSALLIGTIAVDMIINGVTGLIHKV | failed |
| MIMASSAAASISMITLRNLSRNHQSHQSTFLGFSRSFHNQRISSNSPGLSTRARSTTSSTGGFFRTICSSSSNDYSRPTKIQELNVYEFNEGDRNSPAVLKLGKKPDQLCLGDLVPFTNKLYTGDLTKRIGITAGLCVLIQHVPEKKGDRFEASYSFYFGDYGHISVQGPYLTYEDTFLAITGGSGVFEGAYGQVKLRQLVYPTKLFYTFYLKGVAADLPVELTGKHVEPSKEVKPAAEAQATQPGATIANFTN | failed |
| METLKKNWTKFILSFIMLVLAIICVYTLSTYKSSEKNTGFLKMGGGFNKSFNSSSRKLNGQPNMKGAPAQHPSNSNANSKSAPPNNFNHNVSKPQRMMGGGEFNSSSKYSSEVLIYSLGFFAIVICAYLAIVKKKIKISTENRGFILAAFLVIGFLFRIIVGLLITGYVTDIGLYKQWALTAAKNLAAVYTNGSVDYPPVYLYVLSIIGKIASSSFMSNYSTLLIKLPSIIADIFSAYFVYRLSIKRFSYETSFALTLFYLFNPAILINSTLWGQADSFFTLLVILAVYFISEDKIVPSSIFFALSVLMKPQGIIFLPLVLFWYIKNKNLKSIFKSIASGFITTIIVLAPFSISKGNITWIFDLYTREVSEYPYASNNAFNFYSLIGANRVKDSNTMFIFSYHTWGMLFIVLITLISGFFYLKSKNKYASTLAALIQVVGVFNFSVGMHERYMFTAVLASILAYIYFKDKRLLLISLLLSFINYANMHTILFNRLNMNVNSSSSMLIVFISLLNITTFVYLIKVCFDLCLKKDIKVTEDIQNTL | failed |
| MLWSFIAVCFSAWLYVDASYRGPAWRRWVFKPVTLILLLLLAWQAPMFNAISYLVLAGLCASLLGDALTLLPRQRVMYAVGAFFLSHLLYTIWFASQLTLSFFWPLPLVLLVFGALLMAVIWSRLEEMKMPVLTFIGMTLVMVWLAGELWFARPTNTALSGFAGAALLLLSNAVWLVSHYRRRFRADNAIAAAFYFAGHFLIVRALYL | failed |
| MELISIIVPVYNGEIYIGRCLDSILEQTYQNLEIIIIDDGSSDRTGDICEKYFLEDRRIKYFYQENRGQSVARNNGVLRCTGDWIAFLDSDDVYLPYSIEVMYNIQKATNADIVLTSIGNFNNTYNTSINSQYLKEIKLYTLEVALEEMYYGKTYGVSPLAKLYPRSNLLSNPYPEGKIHEDMDTTFKLISCASKIAVCDIVTAVVYFSDNSTTRTKFNERMLYFFEAIQNNIVFINLNFPHNTSLISAVIYNEVFGGIDICGKMIDFKLYDTVDYYRKKYRKYFKTILFNNRISVKEKVKYILFISSIRYFTIVRKIYNLRLSRNGLEHHHHHH | failed |
| MDINKLKLTPDSSIKEALKIVGQERVRLGIIVDKKDKFLGVISDSNIRKALISGKTLKDSIKDIYTKNPITIKENTSKEQLLKISAKTDIYDFPVLDEKGQILSIKSISSLLKANPNSIIIMAGGLGSRLKELTKDTPKPMLKVGKKPILESIIQRLKNQNFENFIFCVNYKKQIIEDYFQKGQKFGVKISYIKERKKLGTAGALSLIKQEFKESFIVMNADILTELDFNALLKAHKKSKALMSVCVREFEQQIPYGVITQKQGFIENIEEKPTQKFLVSAGIYVLENEILNLIAKNEYLDMPELIKLVLQKGKVNTYIINDYWIDIGRPDEFLKANEDFKLEHHHHHH | not failed |
| APAEPAAPKSGEAETPPKHPGVLKVEAILEKVQGLEQAVDSFEGKKTDKKYLMIEEYLTKELLALDSVDPEGRADVRQARRDGVRKVQTILEKLEQKA | not failed |
| MGHHHHHHSHKPIKVEKTVTINKPADELYRYWHNFENLPTFMKHLKSVKVYNEKRSHWIANAPLGNSVEWDADILEDRENEFISWASAEGADVENSGFVRFQKAPGDVPGQAASRLRGTEVKVVLEYNLPGGALAAVVAKLFGEEPEQQIGDELRRFKM | not failed |
| MLPSPSSSSAPTKRIDPSELKRVFQMFDKNGDGRITKEELNDSLENLGIYIPDKDLTQMIHKIDANGDGCVDIDEFESLYSSIVDEHHNDGETEEEDMKDAFNVFDQDGDGFITVEELKSVMASLGLKQGKTLDGCKKMIMQVDADGDGRVNYKEFLQMMKGGGFSSSN | not failed |
| MSVFAGLVEQLADVLQPLFHASAAAAAIVLFTALVRLLVHPLSRASARGQRARARLQPQVAELRKKHGKNPEKLQKALLELHAEEKVSPLSGCLPGLFQLPAFFLLYHLFSNTTIGGEGNELLTHTLFTAPLGDRWADALGDGGPFGTQGLVYLGLFAIVAAVATFNYRRTKRTMAANPLPVGDGEQQVPGLGAINRFMPLMSFFTLFTVAFVPLAAALYVVTSTTWSAVERAALYPVPERSS | failed |
| MIHRRCVGGRRNHGGRVAQGSSRSRLPQQGTPVTMSSTSSTPPWNVQRLPGADGRVFLVTGGNAGIGYFVAEQLSATGATVVLGSRNPAKAEAATASIRARVPGSRVRAVRLDLADLSSLETAVESLEVERLDAVVHNAGVALDDPPREETGDGHELMFGTNHLGHFALTQWLMPLLSAAPAARVVTMGSFAAKSERLDLDDLQSRKDYQPKRTYGRSKLAQMYFGVELDRRLRAAGSTVASVVVHPGGALDSLTPSRPPVHVRSTGARLSAAPAALLLQGKHAGAWPAVRAVLDPAVRGGQLWGPRVFGLRGEPRREPVWDHLADPSVAARLWDASCDLMGTDLSTISG | failed |
| MKAPELQIQQWFNSATDLTLADLRGKVIVIEAFQMLCPGCVMHGIPLAQKVRAAFPEDKVAVLGLHTVFEHHEAMTPISLKAFLHEYRIKFPVGVDQPGDGAMPRTMAAYQMRGTPSLLLIDKAGDLRAHHFGDVSELLLGAEIATLLGEAAPSVQKQAGTPQGDANCDNDGCTV | not failed |
| MTKMNRETVITEALDLLDEVGLDGVSTRRLAKRLGVEQPSLYWYFRTKRDLLTAMAQAAMAPHAAEPLPEPGEDWHGWFLRNTRSFRRTLLARRDGARLHAGSRPTADLDRVRRKMDFLVASGVPERHAQMAMLAAGRFTVGCVLEEQAETGAGDTADLPADVPEIDHESAFEAGLALITDGLVRHVDAR | not failed |
| MDIWNFFTSFIVQSIAFLTHEVGVGEAVAIILFTLIGRLVLMPINLLAMANMYRNKKAISALKPELDKIKVIHKDKPNEIAKSTMALYKKNNIKILDKKSVINIASQGVFGFGMFQALQQIVFNSKFAWIANIAKPDVALALLVGVITYFSMIMMPGSAEQTSTLLFIIPAIICIITLISFPSAIGLYWATSSVTSLLQSLVLNNYFQKQEINKAI | failed |
| MPQTLKPDTPAGTPAAGAVAFRRQVLPQDALLVRRVVESTGFFTPEEADVAQELVDEHLMHGAACGYHFVFATEDDDMAGYACYGPTPATEGTYDLYWIAVAPHRQHSGLGRALLAEVVHDVRLTGGRLLFAETSGIRKYAPTRRFYERAGFSAEAVLKAFYRAGDDKIIYRLEVA | not failed |
| STQTDKALYNRLVPLVNGVREFSEIQLSRLKKLGIHKTDPSTLTEEEVRKFARLNIDPATITWQ | not failed |
